Measured values reported in patent US20230332164A1 (SYNLOGIC OPERATING, published 2023).

B1: mCV1SIRPα, secreted by SYN3159 (receptor)
chain: VDYKDDDDKQLGGSEEELQIIQPDKSVLVAAGETATLRCTITSLFPVGPIQWFRGAGPGRVLIYNQRQGPFPRVTTVSDTTKRNNMDFSIRIGNITPADAGTYYCIKFRKGSPDDVEFKSGAGTELSVRAKPSGSGELGGSGKPIPNPLLGLDSTGSGHHHHHH
notes: also called PhoA-FLAG-CV1sirpα-V5-HIS
B2: mCD40L1 (47-260), secreted by SYN3366 (ligand)
chain: VDYKDDDDKQLGGGHRRLDKVEEEVNLHEDFVFIKKLKRCNKGEGSLSLLNCEEMRRQFEDLVKDITLNKEEKKENSFEMQRGDEDPQIAAHVVSEANSNAASVLQWAKKGYYTMKSNLVMLENGKQLTVKREGLYYVYTQVTFCSNREPSSQRPFIVGLWLKPSSGSERILLKAANTHSSSQLCEQQSVHLGGVFELQAGASVFVNVTEASQVIHRVGFSSFGLLKLKGELNSKLEGKPIPNPLLGLDSTDPNSSSVDHHHHHH
B3: WT mSIRPα (32-373), secreted by SYN2996 (receptor)
chain: VDYKDDDDKQLGGGKELKVTQPEKSVSVAAGDSTVLNCTLTSLLPVGPIKWYRGVGQSRLLIYSFTGEHFPRVTNVSDATKRNNMDFSIRISNVTPEDAGTYYCVKFQKGPSEPDTEIQSGGGTEVYVLAKPSPPEVSGPADRGIPDQKVNFTCKSHGFSPRNITLKWFKDGQELHHLETTVNPSGKNVSYNISSTVRVVLNSMDVHSKVICEVAHITLDRSPLRGIANLSNFIRVSPTVKVTQQSPTSMNQVNLTCRAERFYPEDLQLIWLENGNVSRNDTPKNLTKNTDGTYNYTSLFLVNSSAHREDVVFTCQVKHDQQPAITRNHTVLGLAHSSDQGSMQTFPGNNATHNWNKGELNSKLEGKPIPNPLLGLDSTDPNSSSVDHHHHHH
B4: CD47 on mouse CT26 cells (receptor, UniProt Q61735 19-303, looked up)
chain: QLLFSNVNSIEFTSCNETVVIPCIVRNVEAQSTEEMFVKWKLNKSYIFIYDGNKNSTTTDQNFTSAKISVSDLINGIASLKMDKRDAMVGNYTCEVTELSREGKTVIELKNRTVSWFSPNEKILIVIFPILAILLFWGKFGILTLKYKSSHTNKRIILLLVAGLVLTVIVVVGAILLIPGEKPVKNASGLGLIVISTGILILLQYNVFMTAFGMTSFTIAILITQVLGYVLALVGLCLCIMACEPVHGPLLISGLGIIALAELLGLVYMKFVASNQRTIQPPRNR
notes: whole, on cells; also called CD47 on CT26 cells; murine CD47 on CT26 cells
B5: anti-mCD47 scFv, secreted by SYN3161 (scFv)
scFv: QVKLLQSGAALVKPGASVKMSCQASGYSFTDYWVTWVKQSHGQSLEWIGEIYPSNTVTNFNDNFKGKATLTVDKSTSTAYMELSRLTSEDSAIYYCTRIGNSGYRVGWFIYWGQGTLVTVLSGGGGSGGGGSGGGGSDTVLTQSPALAVSPGERVTISCKASESVSSHMHWYQQKPGQQPKLLIYKASNLASGVPARFSGSGSGTDFTLTIDPVEADDTATYFCQQGWNGPFTFGAGTRLELKRADAAGSGELGGSGKPIPNPLLGLDSTGSGHHHHHH
B6: mCD40L2 (112-260), secreted by SYN3367 (ligand)
chain: VDYKDDDDKQLGGGMQRGDEDPQIAAHVVSEANSNAASVLQWAKKGYYTMKSNLVMLENGKQLTVKREGLYYVYTQVTFCSNREPSSQRPFIVGLWLKPSSGSERILLKAANTHSSSQLCEQQSVHLGGVFELQAGASVFVNVTEASQVIHRVGFSSFGLLKLKGELNSKLEGKPIPNPLLGLDSTDPNSSSVDHHHHHH
B7: mFD6x2SIRPα, secreted by SYN3160 (receptor)
chain: VDYKDDDDKQLGGSEEEVQIIQPDKSVSVAAGESAILHCTITSLFPVGPIQWFRGAGPARVLIYNQRQGPFPRVTTISETTRRENMDFSISISNITPADAGTYYCIKFRKGSPDTEFKSGAGTELSVRAKPSGGGGSGGGGSEEEVQIIQPDKSVSVAAGESAILHCTITSLFPVGPIQWFRGAGPARVLIYNQRQGPFPRVTTISETTRRENMDFSISISNITPADAGTYYCIKFRKGSPDTEFKSGAGTELSVRAKPSGSGELGGSGKPIPNPLLGLDSTGSGHHHHHH
notes: also called mFD62xSIRPα; FD1x2SIRPα

Columns and labels:
CD47 on mouse CT26 cells = target: B4; assay: flow cytometry on CT26 cells, 10x concentrated supernatant
IgG (control coating) [1] = assay: ELISA, IgG-coated plate, clarified bacterial supernatant
IgG (control coating) [2] = assay: ELISA, IgG-coated plate, bacterial supernatant
[3] = target: T1, recombinant SIRPα (Rndsystems) (mouse, UniProt P97797 32-373, limits assumed); assay: competition flow cytometry on CT26 cells
T1 construct: also called recombinant SIRPalpha; recombinant mSIRPα
T1 sequence (looked up): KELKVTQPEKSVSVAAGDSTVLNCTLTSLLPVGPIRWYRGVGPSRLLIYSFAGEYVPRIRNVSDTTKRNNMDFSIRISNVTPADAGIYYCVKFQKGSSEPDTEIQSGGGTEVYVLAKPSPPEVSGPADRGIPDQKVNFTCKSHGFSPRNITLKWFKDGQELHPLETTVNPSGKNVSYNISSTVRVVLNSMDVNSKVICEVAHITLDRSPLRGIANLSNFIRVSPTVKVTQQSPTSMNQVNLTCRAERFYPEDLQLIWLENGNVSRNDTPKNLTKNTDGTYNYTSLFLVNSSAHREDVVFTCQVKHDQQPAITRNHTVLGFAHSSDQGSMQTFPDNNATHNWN
Method: Cells were spun down, supernatant was aspirated, pellet was resuspended in 1 ml D-PBS, transferred into chilled assay tubes (1×10\hat{ }6 cells), and washed 3 times in D-PBS. Cells were resuspended in D-PBS with 0.5% BSA, to which the 10 jut of the supernatant (10× concentrated) were added and incubated for 1 hour at 4 C. Supernatant from SYN1557 was used as a baseline negative control. Cells were then resuspended in 0.5 ml PBS, diluted to proper concentration and analyzed on a flow cytometer.

B1
binding result (CD47 on mouse CT26 cells): binds

B2
ELISA signal (unit not given) (IgG (control coating) [1]): 0.052

B3
ELISA signal (unit not given) (IgG (control coating) [2]): 0.056

B4
binding result [3]: binds

B5
ELISA signal (unit not given) (IgG (control coating) [2]): 0.067

B6
ELISA signal (unit not given) (IgG (control coating) [1]): 0.052

B7
binding result (CD47 on mouse CT26 cells): binds
